Patent publication US20190078119A1

target: AAV8 capsid (native AAV8) (AAV8); experiment: cell-based or functional assay

Substance	AAV8 Nab titer (neutralizing antibody titer of the antibody stock)
monoclonal neutralizing antibody ADK8	2560 titer 1:n
monoclonal antibody ADK8/9	2560 titer 1:n
monoclonal antibody ADK9	5 titer 1:n
